T1: L-PGDS mutant Cys^89,186Ala (Mus musculus, UniProt O09114, C186A/C89A)
T1 construct: GST (N, cleaved yes); made in house; host or cells: Escherichia coli DH5α
T1 sequence (O09114 25-189 C89A/C186A): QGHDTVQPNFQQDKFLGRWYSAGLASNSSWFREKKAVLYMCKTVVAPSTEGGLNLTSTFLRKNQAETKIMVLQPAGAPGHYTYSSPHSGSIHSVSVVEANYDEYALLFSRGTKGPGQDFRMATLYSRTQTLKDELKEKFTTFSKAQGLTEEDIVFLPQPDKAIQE

T2: L-PGDS (Mus musculus, UniProt O09114)
T2 sequence (O09114 25-189): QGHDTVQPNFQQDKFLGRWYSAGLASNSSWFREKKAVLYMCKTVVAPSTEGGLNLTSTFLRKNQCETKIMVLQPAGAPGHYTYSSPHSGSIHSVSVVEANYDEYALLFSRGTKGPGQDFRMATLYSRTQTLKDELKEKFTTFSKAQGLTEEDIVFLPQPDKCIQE

B1: mouse L-PGDS, Wild Type(C65), Cys^89,186Ala construct, SEQ ID NO:1 (Mus musculus; C186A/C89A) (protein)
chain: QGHDTVQPNFQQDKFLGRWYSAGLASNSSWFREKKAVLYMCKTVVAPSTEGGLNLTSTFLRKNQAETKIMVLQPAGAPGHYTYSSPHSGSIHSVSVVEANYDEYALLFSRGTKGPGQDFRMATLYSRTQTLKDELKEKFTTFSKAQGLTEEDIVFLPQPDKAIQE
B2: mouse L-PGDS mutant S45A (Ser^45Ala) in Cys^89,186Ala construct (Mus musculus; C186A/C89A/S45A) (protein)
chain: QGHDTVQPNFQQDKFLGRWYAAGLASNSSWFREKKAVLYMCKTVVAPSTEGGLNLTSTFLRKNQAETKIMVLQPAGAPGHYTYSSPHSGSIHSVSVVEANYDEYALLFSRGTKGPGQDFRMATLYSRTQTLKDELKEKFTTFSKAQGLTEEDIVFLPQPDKAIQE
B3: mouse L-PGDS mutant S81A (Ser^81Ala) in Cys^89,186Ala construct (Mus musculus; C186A/C89A/S81A) (protein)
chain: QGHDTVQPNFQQDKFLGRWYSAGLASNSSWFREKKAVLYMCKTVVAPSTEGGLNLTATFLRKNQAETKIMVLQPAGAPGHYTYSSPHSGSIHSVSVVEANYDEYALLFSRGTKGPGQDFRMATLYSRTQTLKDELKEKFTTFSKAQGLTEEDIVFLPQPDKAIQE
B4: mouse L-PGDS mutant F83I (Phe^83Ile) in Cys^89,186Ala construct (Mus musculus; C186A/C89A/F83I) (protein)
chain: QGHDTVQPNFQQDKFLGRWYSAGLASNSSWFREKKAVLYMCKTVVAPSTEGGLNLTSTILRKNQAETKIMVLQPAGAPGHYTYSSPHSGSIHSVSVVEANYDEYALLFSRGTKGPGQDFRMATLYSRTQTLKDELKEKFTTFSKAQGLTEEDIVFLPQPDKAIQE
B5: mouse L-PGDS mutant R85E (Arg^85Glu) in Cys^89,186Ala construct (Mus musculus; C186A/C89A/R85E) (protein)
chain: QGHDTVQPNFQQDKFLGRWYSAGLASNSSWFREKKAVLYMCKTVVAPSTEGGLNLTSTFLEKNQAETKIMVLQPAGAPGHYTYSSPHSGSIHSVSVVEANYDEYALLFSRGTKGPGQDFRMATLYSRTQTLKDELKEKFTTFSKAQGLTEEDIVFLPQPDKAIQE
B6: mouse L-PGDS mutant K92E (Lys^92Glu) in Cys^89,186Ala construct (Mus musculus; C186A/C89A/K92E) (protein)
chain: QGHDTVQPNFQQDKFLGRWYSAGLASNSSWFREKKAVLYMCKTVVAPSTEGGLNLTSTFLRKNQAETEIMVLQPAGAPGHYTYSSPHSGSIHSVSVVEANYDEYALLFSRGTKGPGQDFRMATLYSRTQTLKDELKEKFTTFSKAQGLTEEDIVFLPQPDKAIQE
B7: mouse L-PGDS mutant T147A (Thr^147Ala) in Cys^89,186Ala construct (Mus musculus; C186A/C89A/T147A) (protein)
chain: QGHDTVQPNFQQDKFLGRWYSAGLASNSSWFREKKAVLYMCKTVVAPSTEGGLNLTSTFLRKNQAETKIMVLQPAGAPGHYTYSSPHSGSIHSVSVVEANYDEYALLFSRGTKGPGQDFRMAALYSRTQTLKDELKEKFTTFSKAQGLTEEDIVFLPQPDKAIQE

Assays:
[1] = molecular target: T1, L-PGDS mutant Cys^89,186Ala; experiment: Binding of prostaglandins to L-PGDS by surface plasmon resonance (BiaCore 2000); details: for binding to L-PGDS (in words): 10 µM (Figure 7)
Procedure: L-PGDS can act as a PGD2 transporter protein. […] That is, L-PGDS act as a PGD2 synthesis enzyme coupled with COX in cells and thereafter as an extracellular transporter of PGD2.
The binding of PGD2, PGE2 or PGF2α to L-PGDS was analyzed with BiaCore 2000 system (BiaCore, Uppsala, Sweden) using the surface plasmon resonance method. L-PGDS mutant Cys^89,186Ala was immobilized on CM5 sensor chip (BIAcore AB) coated with carboxymethyldextran. Binding assay was carried out at a constant flow rate of 30µ l/min. in the concentration range of 0.1 to 10 µ M in both the binding phase and the dissociation phase. After each assay, the sensor chip surface was regenerated with 15 µ l of 1.5 M urea. Rate constant values were calculated using analysis soft wear BIA Evaluation 3.0 soft wear after subtracting control surface (bovine serum albumin) using Langmuir 1: 1 binding model by four independent experiments.

H-PGDS = H-PGDS (Homo sapiens, UniProt O60760); experiment: Affinity of H-PGDS to PGD2; type: binding
Sequence of H-PGDS (O60760 whole entry, species assumed): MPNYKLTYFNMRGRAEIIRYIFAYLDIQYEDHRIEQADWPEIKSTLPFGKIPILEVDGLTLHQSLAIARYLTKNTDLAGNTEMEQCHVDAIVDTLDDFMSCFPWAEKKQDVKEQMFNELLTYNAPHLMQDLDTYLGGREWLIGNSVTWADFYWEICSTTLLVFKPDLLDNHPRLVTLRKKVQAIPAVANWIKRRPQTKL

[2] = tested on: human cerebellum medulloblast (TE671) expressing L-PGDS; experiment: Inhibition of A23187-stimulated PGD2 production from cells expressing L-PGDS (EIA); type: cell-based; details: TE-671 cells, A23187 5 µM, compound added 15 minutes before stimulation, medium recovered 15 minutes after
Procedure: TE-671 is seeded on microplate at the density of 1×10^7. The cells were stimulated by A231875 (5 µ M) to cause PGD2 production. […] The culture medium was recovered 15 minutes after A23187 stimulation to quantify the PGD2 concentration in the culture medium by enzyme immunoassay (EIA).

[3] = molecular target: hematopoietic PGD Synthase (H-PGDS) (Homo sapiens, UniProt O60760); experiment: Inhibition of hematopoietic PGD synthase enzyme activity ([1-14C]PGH2 to PGD2, thin layer chromatography); type: biochemical; details: 3 to 300 µM; PGH2 40 µM, 0.1 mM GSH, 25°C, 30 seconds
Sequence of hematopoietic PGD Synthase (H-PGDS) (O60760 whole entry, species assumed): as above
Procedure: In the measurement of hematopoietic PGD Synthase (H-PGDS), [1-^14C] PGH2 (40µM) as substrate is reacted in the presence of 0.1 M Tris-HCl (pH 8.0) and 0.1 mM GSH (reduced glutathione) at 25°C for 30 seconds.
After the completion of the reaction, the reaction liquid was subjected to thin layer chromatography to isolate and quantify PGD2 to calculate enzyme activity.

L-PGDS = molecular target: T2, L-PGDS; experiment: Binding of retinoids to L-PGDS
[4] = substrate: [H][C@]12C[C@]([H])(OO1)[C@H](C/C=C\CCCC(=O)O)[C@H]2/C=C/[C@@H](O)CCCCC; experiment: PGDS activity kinetics of L-PGDS mutants; type: biochemical, mouse; details: other: Km for PGH2, pH=8.0, 25.0 °C
Source text: Since the preparation of recombinant protein having the same PGDS activity as purified wild-type enzyme is easy, Cys^89,186Ala construct was used for this purpose. Various mutants were expressed, purified to homogeneity and L-PGDS activities were compared at pH 8, 9 and 10 (Figure 8) .
After a candidate compound of L-PGDS inhibitor is selected, it is preferably contacted with the enzyme in the presence of the substrate (prostaglandin H2) to confirm an ability of the compound to inhibit the enzyme (see, for example, Shimizu, t., Yamamoto, S., and Hayaishi O. (1979), Purification and Properties of prostaglandin D synthase from rat brain, J. Biol. Chem., 254:5222-5228). The enzyme activity can be measured, for example, as follows:
The substrate [1-^14C]prostaglandin (PG)H2 is synthesized by reacting [1^-14C]arachidonic acid with cyclooxygenase. Since PGH2 is easily decomposed in an aqueous solution (half life: about 5 minutes), it is evaporated to dryness and stored at low temperature(-80°C). The enzyme reaction is performed by injecting 1 µL of PGH2 solution(acetone or non-volatile diethylenediglycohol solution) with a microsyringe to 49 µ L of 0.1 M phosphate buffer (pH8.0) containing 1 mM dithiothreitol (DTT) and the enzyme. After the reaction at 25 °C for 30 to 60 seconds, the reaction is quenched by the addition of 300 µL of ice-cold mixed solution of ether/methanol/0.1 M citric acid (30:4:1 v/v/v) followed by extraction the substrate and reaction product under acidic condition into ether layer. Subsequently, anhydrous sodium sulfate was added to dehydrate it. An aliquot of organic layer (about 50 µ L) is coated on silica gel thin layer in a low temperature room (4°C) and subjected to silica gel thin layer chromatography in a freezer (-20 °C) (developing solvent: ether/methanol/acetic acid (90:2:1 v/v/v) . After the development, radioactivity of PGD2 fraction and fraction other than it are measured to calculate an enzyme activity based on the conversion ratio to PGD2.
The site-specific mutagenesis was performed using a Quick change site-directed mutagenesis kit (Stratgene, Heiderberg, Germany). The DNA sequence was confirmed by the determination of cycle sequencing by a SequiTherm cycle sequencing kit (Epicentre Technologies, Madison, WI) followed by LI-COR model 4000L automatic DNA sequencer (LI-COR Inc., Lincoln, NE)

Row | Molecule | Km [4] [µM] | kcat/Km [4] [µM^-1Min^-1] | further results
1 | CCCCC[C@H](O)/C=C/[C@H]1C(=O)C[C@H](O)[C@@H]1C/C=C\CCCC(=O)O [PGD2] | – | – | kon ([1]; Langmuir 1:1 binding model): 1.24x10^3 ± 37 M^-1sec^-1; Kd ([1]; Langmuir 1:1 binding model, four independent experiments): 89.4 ± 3.4 nM; affinity of H-PGDS to PGD2 (in words) (H-PGDS): does not show high affinity
2 | CCCCC[C@H](O)/C=C/[C@H]1[C@H](O)CC(=O)[C@@H]1C/C=C\CCCC(=O)O [PGE2] | – | – | binding to L-PGDS (in words) [1]: Neither PGE2 nor PGF2α is bound
3 | CCCCC[C@H](O)/C=C/[C@@H]1[C@@H](C/C=C\CCCC(=O)O)[C@@H](O)C[C@H]1O [PGF2α] | – | – | binding to L-PGDS (in words) [1]: Neither PGE2 nor PGF2α is bound
4 | C1=Cc2ccccc2C(=C2CCN(CCCCc3nn[nH]n3)CC2)c2ccccc21 [AT-56, 4-dibenzo(a,d)cyclohepten-5-ylidene-1-(4-(2H-tetrazole-5-yl)butyl)piperidine] | – | – | inhibition of PGD2 production by A23187 stimulation (in words) [2]: dose-dependently inhibited; inhibition of H-PGDS (in words) [3]: does not inhibit
5 | CC1=C(/C=C/C(C)=C/C=C/C(C)=C/C=O)C(C)(C)CCC1 [retinal] | – | – | binding to L-PGDS (in words) (L-PGDS): binds
6 | B1 | 13 | 2.38 | –
7 | B2 | 11 | – | –
8 | B3 | 12 | 0.50 | –
9 | B4 | 15 | 4.47 | –
10 | B5 | 7 | 4.86 | –
11 | B6 | 14 | 5.71 | –
12 | B7 | 19 | 0.95 | –

From EP1574569A1, “THREE-DIMENSIONAL STRUCTURE OF LIPOCALIN-TYPE PROSTAGLANDIN D SYNTHASE AND UTILIZATION OF THE SAME” (RIKEN, priority 2002, dated 2004)
